Experimental data published in US11306156.
Values belong to the substance of their own block, whether it stands above or below them.

How the values were obtained:
[1] = target: tissue factor (TF) antigen (UniProt P13726); assay: SPR, Fab captured on anti-penta His, TF injected; * estimated value taken from a Fab differing only in the L chain tag
[2] = target: tissue factor (TF) antigen (UniProt P13726); assay: SPR; Fab captured by anti-His, TF as analyte; LCCA set 9347
[3] = target: tissue factor (TF) antigen (UniProt P13726); assay: SPR; reference wild-type D3H44 Fab; * estimated value
[4] = target: tissue factor (TF) antigen (UniProt P13726); assay: SPR, Fab captured by anti-His, TF as analyte; * estimated from Fab differing only in L chain tag
[5] = target: tissue factor (TF) antigen (UniProt P13726); assay: SPR; Fab captured by anti-His, TF as analyte; LCCA set 9813
[6] = target: tissue factor (TF) antigen (UniProt P13726); assay: SPR; Fab captured by anti-His, TF as analyte; LCCA set 9746
[7] = target: tissue factor (TF) antigen (UniProt P13726); assay: SPR; Fab captured by anti-His, TF as analyte; LCCA set 10549
[8] = target: tissue factor (TF) antigen (UniProt P13726); assay: SPR; Fab captured by anti-His, TF as analyte; LCCA set 10549 (identifier in reverse orientation, assigned by Table 12)
[9] = target: D3H44 light chain Q124R_Q160K_T178R, N-terminal HA or FLAG tag; assay: LCCA, SPR of light chain tags, L1:L2 DNA 1:9 norm. to 1:1; other light chain m27
[10] = target: D3H44 light chain Q124E_V133E, N-terminal HA or FLAG tag; assay: LCCA, SPR of light chain tags, L1:L2 DNA 1:3 norm. to 1:1; other light chain m24
[11] = target: D3H44 light chain Q124E_V133D, N-terminal HA or FLAG tag; assay: as above
[12] = target: D3H44 light chain Q124E_V133D_S176L, N-terminal HA or FLAG tag; assay: LCCA, SPR of light chain tags, L1:L2 DNA 1:3 norm. to 1:1; other light chain m17
[13] = target: D3H44 light chain Q124E_S131T_T178Y_T180E, N-terminal HA or FLAG tag; assay: as above
[14] = target: D3H44 light chain Q124E_S176L_T180E, N-terminal HA or FLAG tag; assay: as above
[15] = target: D3H44 light chain Q124R_Q160K_T178R, N-terminal HA or FLAG tag; assay: LCCA, SPR of light chain tags, L1:L2 DNA 1:3 norm. to 1:1; other light chain m16
[16] = target: D3H44 light chain Q124E_V133D, N-terminal HA or FLAG tag; assay: LCCA, SPR of light chain tags, L1:L2 DNA 1:9 norm. to 1:1; other light chain m24
[17] = target: D3H44 light chain Q124R, N-terminal HA or FLAG tag; assay: LCCA, SPR of light chain tags, L1:L2 DNA 1:3 norm. to 1:1; other light chain m28
[18] = target: D3H44 light chain Q124R, N-terminal HA or FLAG tag; assay: LCCA, SPR of light chain tags, L1:L2 DNA 1:3 norm. to 1:1; other light chain m18
[19] = target: D3H44 light chain Q124R_Q160K_T178R, N-terminal HA or FLAG tag; assay: LCCA, SPR of light chain tags, L1:L2 DNA 1:3 norm. to 1:1; other light chain m27
[20] = target: D3H44 light chain Q124R, N-terminal HA or FLAG tag; assay: LCCA, SPR of light chain tags, L1:L2 DNA 1:9 norm. to 1:1; other light chain m28
[21] = target: D3H44 light chain Q124R_Q160K_T178R, N-terminal HA or FLAG tag; assay: LCCA, SPR of light chain tags, L1:L2 DNA 1:3 norm. to 1:1; other light chain m15
[22] = target: D3H44 light chain Q124E_V133D_S176L, N-terminal HA or FLAG tag; assay: LCCA, SPR of light chain tags, L1:L2 DNA 1:9 norm. to 1:1; other light chain m17
[23] = target: tissue factor (TF) antigen (UniProt P13726); assay: SPR; Fab captured by anti-His, TF as analyte; LCCA set 9116
[24] = target: D3H44 Fab heavy chain Q179K, C-terminal ABD2-His6 tag; assay: LCCA: heavy chain co-expressed with two light chains, SPR detection of light chain tags; L1:L2 DNA 1:3, normalized to 1:1; competing light chain m11
[25] = target: D3H44 Fab heavy chain L143E_K145T, C-terminal ABD2-His6 tag; assay: as above
[26] = target: D3H44 light chain Q124R_Q160K_T178R, N-terminal HA or FLAG tag; assay: LCCA, SPR of light chain tags, L1:L2 DNA 1:3 norm. to 1:1; other light chain m23
[27] = target: D3H44 light chain Q124E_S131T_T178Y_T180E, N-terminal HA or FLAG tag; assay: LCCA, SPR of light chain tags, L1:L2 DNA 1:3 norm. to 1:1; other light chain m14
[28] = target: D3H44 light chain Q124E_S131T_T178F_T180E, N-terminal HA or FLAG tag; assay: as above
[29] = target: D3H44 light chain Q124E_Q160E_T178E, N-terminal HA or FLAG tag; assay: LCCA, SPR of light chain tags, L1:L2 DNA 1:3 norm. to 1:1; other light chain m17
[30] = target: D3H44 light chain Q124E_T178E_T180E, N-terminal HA or FLAG tag; assay: as above
[31] = target: D3H44 light chain Q124R_T178R, N-terminal HA or FLAG tag; assay: LCCA, SPR of light chain tags, L1:L2 DNA 1:3 norm. to 1:1; other light chain m20
[32] = target: D3H44 light chain Q124R_Q160K_T178R, N-terminal HA or FLAG tag; assay: LCCA, SPR of light chain tags, L1:L2 DNA 1:3 norm. to 1:1; other light chain m21
[33] = target: D3H44 light chain Q124R_T178R, N-terminal HA or FLAG tag; assay: LCCA, SPR of light chain tags, L1:L2 DNA 1:3 norm. to 1:1; other light chain m15
[34] = target: tissue factor (TF) antigen (UniProt P13726); assay: SPR; Fab captured by anti-His, TF as analyte; LCCA set 9375
[35] = target: tissue factor (TF) antigen (UniProt P13726); assay: SPR; Fab captured by anti-His, TF as analyte; LCCA set 9374
[36] = target: tissue factor (TF) antigen (UniProt P13726); assay: SPR; Fab captured by anti-His, TF as analyte; LCCA set 9060
[37] = target: tissue factor (TF) antigen (UniProt P13726); assay: SPR; Fab captured by anti-His, TF as analyte; LCCA set 9824
[38] = target: D3H44 Fab heavy chain L143E_K145T_S188L, C-terminal ABD2-His6 tag; assay: LCCA: heavy chain co-expressed with two light chains, SPR detection of light chain tags; L1:L2 DNA 1:3, normalized to 1:1; competing light chain m11
[39] = target: D3H44 Fab heavy chain S186K, C-terminal ABD2-His6 tag; assay: as above
[40] = target: tissue factor (TF) antigen (UniProt P13726); assay: SPR; Fab captured by anti-His, TF as analyte; LCCA set 9814
[41] = target: tissue factor (TF) antigen (UniProt P13726); assay: SPR; Fab captured by anti-His, TF as analyte; LCCA set 9104; estimated from the Fab differing only in L chain tag

Substance: D3H44 Fab heterodimer H L124E_L143E_K145T / L Q124K_V133G_S176R_T178K (H1L1 Fab of LCCA Set # 9298)
- Change in KD with respect to wild type (-(log(KD design) - log(KD wt))) [1]: -0.12
- Kd [1]: 0.21 nM

Substance: D3H44 Fab heterodimer, H L124R_A125R_H172T / L V133G_N137K_S174R_S176D (H1L1 Fab of LCCA set 9347)
- Change in KD with respect to wild type (-(log(KD design) - log(KD wt))) [2]: -0.16
- Kd [2]: 0.23 nM

Substance: D3H44 Fab heterodimer, heavy L124E_L143E_K145T / light Q124K_V133G_S176R_T178K
- Change in KD of h1|1 Fab heterodimer with respect to wild type (-(log(KD design) - log(KD wt))) [3]: -0.12
- Kd [4]: 0.21 nM

Substance: D3H44 Fab heavy chain L143E_K145T_S188L, ABD2-His6 tagged
- H1L1:H1L2 normalized median ratio [9]: 76%
- H1L1:H1L2 normalized median scalar value ln(r1/f1) [9]: 4
- H1L1:H1L2 normalized median ratio [10]: 31%
- H1L1:H1L2 normalized median ratio [11]: 16%
- H1L1:H1L2 normalized median ratio [12]: 23%
- H1L1:H1L2 normalized median ratio [13]: 26%
- H1L1:H1L2 normalized median ratio [14]: 43%
- H1L1:H1L2 normalized median ratio [15]: 57%
- H1L1:H1L2 normalized median scalar value ln(r1/f1) [15]: 0.28
- H1L1:H1L2 normalized median ratio [16]: 21%
- H1L1:H1L2 normalized median ratio [17]: 84%
- H1L1:H1L2 normalized median scalar value ln(r1/f1) [17]: 1.63
- H1L1:H1L2 normalized median ratio [18]: 69%
- H1L1:H1L2 normalized median scalar value ln(r1/f1) [18]: 0.81
- H1L1:H1L2 normalized median ratio [19]: 77%
- H1L1:H1L2 normalized median scalar value ln(r1/f1) [19]: 1.22
- H1L1:H1L2 normalized median ratio [20]: 79%
- H1L1:H1L2 normalized median scalar value ln(r1/f1) [20]: 1.32
- H1L1:H1L2 normalized median ratio [21]: 74%
- H1L1:H1L2 normalized median scalar value ln(r1/f1) [21]: 1.03
- H1L1:H1L2 normalized median ratio [22]: 24%

Substance: D3H44 Fab heterodimer, H L124E_A139W / L F116A_V133G_L135V_S176R (H1L1 Fab of LCCA set 9116)
- Change in KD with respect to wild type (-(log(KD design) - log(KD wt))) [23]: -0.02
- Kd [23]: 0.16 nM

Substance: D3H44 light chain S131E, N-terminal HA or FLAG tag
- H2L2:H2L1 normalized median ratio [24]: 98%
- H1L1:H1L2 normalized median ratio [25]: 53%

Substance: D3H44 Fab heterodimer, H A139W_L143E_K145T_Q179E / L F116A_Q124R_L135V_T178R (H1L1 Fab of LCCA set 9060)
- Change in KD with respect to wild type (-(log(KD design) - log(KD wt))) [36]: 0.04
- Kd [36]: 0.14 nM

Substance: D3H44 Fab heterodimer, H Q39R_H172R_S186R / L Q38E_Q124E_Q160E_T180E (H1L1 Fab of LCCA set 9824)
- Change in KD with respect to wild type (-(log(KD design) - log(KD wt))) [37]: 0.03
- Kd [37]: 0.15 nM

Substance: D3H44 Fab heterodimer, H Q39E_K145T_Q179E / L Q38R_S131K (H1L1 Fab of LCCA set 9814)
- Change in KD with respect to wild type (-(log(KD design) - log(KD wt))) [40]: -0.01
- Kd [40]: 0.16 nM

Substance: D3H44 Fab heterodimer, H L124E / L S131T_V133G_S176R_T178Y (H1L1 Fab of LCCA set 9104)
- Change in KD with respect to wild type (-(log(KD design) - log(KD wt))) [41]: -0.01
- Kd [41]: 0.16 nM

Second part, the substance after the results:

- Change in KD with respect to wild type (-(log(KD design) - log(KD wt))) [5]: -0.05
- Kd [5]: 0.18 nM
Substance: D3H44 Fab heterodimer, H Q39E_K145T_H172R_Q179E / L Q38R_S131K (H1L1 Fab of LCCA set 9813)

- Change in KD with respect to wild type (-(log(KD design) - log(KD wt))) [6]: -0.35
- Kd [6]: 0.35 nM
- Change in KD with respect to wild type (-(log(KD design) - log(KD wt))) [7]: -0.35
- Kd [7]: 0.35 nM
- Change in KD with respect to wild type (-(log(KD design) - log(KD wt))) [8]: -0.35
- Kd [8]: 0.35 nM
Substance: D3H44 Fab heterodimer, H L45P_K145T_Q179E / L P44F_S131K (H1L1 Fab of LCCA sets 9746, 10549)

- H2L2:H2L1 normalized median ratio [26]: 2%
- H2L2:H2L1 normalized median ratio [27]: 93%
- H2L2:H2L1 normalized median ratio [28]: 94%
- H2L2:H2L1 normalized median ratio [29]: 98%
- H2L2:H2L1 normalized median ratio [13]: 95%
- H2L2:H2L1 normalized median ratio [30]: 94%
- H2L2:H2L1 normalized median ratio [31]: 6%
- H2L2:H2L1 normalized median ratio [32]: 6%
- H2L2:H2L1 normalized median ratio [21]: 5%
- H2L2:H2L1 normalized median ratio [33]: 7%
Substance: D3H44 Fab heavy chain Q179K, ABD2-His6 tagged

- Change in KD with respect to wild type (-(log(KD design) - log(KD wt))) [34]: -0.16
- Kd [34]: 0.23 nM
- Change in KD with respect to wild type (-(log(KD design) - log(KD wt))) [35]: -0.16
- Kd [35]: 0.23 nM
Substance: D3H44 Fab heterodimer, H L124R_H172T / L V133G_N137K_S174R_S176D (H1L1 Fab of LCCA sets 9374, 9375)

- Change in KD of h1|1 Fab heterodimer with respect to wild type (-(log(KD design) - log(KD wt))) [3]: -0.07
- Kd [4]: 0.18 nM
Substance: D3H44 Fab heterodimer, heavy L124E_L143E_K145T / light Q124K_V133G_S176R_T178R

- H1L1:H1L2 normalized median ratio [38]: 43%
- H2L2:H2L1 normalized median ratio [24]: 97%
- H2L2:H2L1 normalized median ratio [39]: 97%
Substance: D3H44 light chain Q124E_S176L_T180E, N-terminal HA or FLAG tag
